Reference: patent US20170044259A1 (published 2017)
Values belong to the binder of their own block, whether it stands above or below them.

Legend:
[1] = target: T1, human PD-1-Fc (R and D systems, Minneapolis, Minn.) (human, UniProt Q15116 25-167); assay: ELISA; lower right panel
[2] = target: T1, human PD-1-Fc (R and D systems, …); assay: ELISA; lower left panel
[3] = target: human PD-1-His (R & D systems, Minneapolis, Minn.) (human, UniProt Q15116 25-167); assay: BLI
[4] = target: T1, human PD-1-Fc (R and D systems, …); assay: inhibition ELISA; hPDL-2 Fc blockade
[5] = target: T1, human PD-1-Fc (R and D systems, …); assay: inhibition ELISA; hPDL-1 Fc blockade

T1 sequence (Q15116 25-167): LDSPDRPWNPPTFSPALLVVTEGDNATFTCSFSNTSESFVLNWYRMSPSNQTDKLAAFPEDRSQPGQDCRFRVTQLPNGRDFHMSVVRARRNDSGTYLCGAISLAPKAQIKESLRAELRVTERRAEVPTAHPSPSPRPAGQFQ
Sequence of human PD-1-His (R & D systems, Minneapolis, Minn.) (Q15116 25-167): as above

B3: D4 (antibody, V domains shown)
VH: EVQLVESGGGLVQPGGSLRLSCAHSGFSFSSYDMSWVRQAPGKGLEWVATISGGGRYTYYADSVKGRFTISRDNSKNTLYLQMNSLRAEDTAVYYCASNYYGFDYWGQGTLLTVSS
VL: DIQMTQSPSSLSASVGDRVTITCKASQDVGTAVAWYQQKPGKAPKLLIYWASTRHTGVPSRFSGSGSGTDFTLTISSVQPEDFATYYCQQYSSYPWTFGQGTKLEIKR
Kd [3]: 5.52 nM
IC50 [4]: 1.95 nM
IC50 [5]: 2.72 nM

B4: Bb2 (antibody, V domains shown)
VH: QVQLVQSGAEVKKPGASVKMSCKASGYTFTDYYMDWVRQAPGQGLEWIGYIYPKNGGSSYAQKFQGRATLTVDKSTSTAYMELSSLRSEDTAVYYCARKVVATDYWGQGTLLTVSS
VL: DIQMTQSPSSLSASVGDRVTMTCKSSQSLLYSSNQKNYLAWYQQKPGKAPKLLIFWASIRESGVPSRFSGSGSGTDFTLTISSVQPEDFATYYCQQSDSYPWTFGQGTKLEIKR
Kd [3]: 5.04 nM
IC50 [4]: 1.83 nM
IC50 [5]: 1.67 nM

B5: Ba2 (antibody, V domains shown)
VH: QVQLVQSGAEVKKPGASVKMSCKASGYTFTDYYMDWVRQAPGQGLEWIGYIYPKNGGSSYAQKFQGRATLTVDTSTSTAYMELSSLRSEDTAVYYCARKVVATDYWGQGTLLTVSS
VL: DIQMTQSPSSLSASVGDRVTMTCKSSQSLLYSSNQKNYLAWYQQKPGKAPKLLIFWASIRESGVPSRFSGSGSGTDFTLTISSVQPEDFATYYCQQSDSYPWTFGQGTKLEIKR
IC50 [4]: 1.2 nM
IC50 [5]: 2.2 nM

Continued, values first:

Kd [1]: 3.75 nM
B1: PD-1 1.5 PD026 2001 (antibody)
heavy: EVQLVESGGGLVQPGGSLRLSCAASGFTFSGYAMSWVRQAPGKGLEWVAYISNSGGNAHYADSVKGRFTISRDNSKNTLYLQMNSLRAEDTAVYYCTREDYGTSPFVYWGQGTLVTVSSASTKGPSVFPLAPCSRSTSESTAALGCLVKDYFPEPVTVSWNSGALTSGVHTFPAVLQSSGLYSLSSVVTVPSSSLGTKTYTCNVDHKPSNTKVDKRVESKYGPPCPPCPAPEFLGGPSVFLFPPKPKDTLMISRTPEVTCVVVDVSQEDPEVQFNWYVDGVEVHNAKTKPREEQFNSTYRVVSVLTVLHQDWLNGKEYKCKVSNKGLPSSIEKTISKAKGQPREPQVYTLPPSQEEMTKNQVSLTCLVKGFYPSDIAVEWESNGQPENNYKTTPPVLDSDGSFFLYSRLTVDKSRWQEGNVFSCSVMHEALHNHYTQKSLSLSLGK
light: QGQSGQGGMCSAYAYSSKLCTIGGGSSGGSISSGLLSGRSDNHGGGSDIQLTQSPSSLSASVGDRVTITCRASESVDAYGISFMNWFQQKPGKAPKLLIYAASNQGSGVPSRFSGSGSGTDFTLTISSMQPEDFATYYCQQSKDVPWTFGQGTKLEIKRTVAAPSVFIFPPSDEQLKSGTASVVCLLNNFYPREAKVQWKVDNALQSGNSQESVTEQDSKDSTYSLSSTLTLSKADYEKHKVYACEVTHQGLSSPVTKSFNRGEC

Kd [2]: 5.22 nM
B2: PD-1 1.5 PD025 2001 (antibody)
heavy: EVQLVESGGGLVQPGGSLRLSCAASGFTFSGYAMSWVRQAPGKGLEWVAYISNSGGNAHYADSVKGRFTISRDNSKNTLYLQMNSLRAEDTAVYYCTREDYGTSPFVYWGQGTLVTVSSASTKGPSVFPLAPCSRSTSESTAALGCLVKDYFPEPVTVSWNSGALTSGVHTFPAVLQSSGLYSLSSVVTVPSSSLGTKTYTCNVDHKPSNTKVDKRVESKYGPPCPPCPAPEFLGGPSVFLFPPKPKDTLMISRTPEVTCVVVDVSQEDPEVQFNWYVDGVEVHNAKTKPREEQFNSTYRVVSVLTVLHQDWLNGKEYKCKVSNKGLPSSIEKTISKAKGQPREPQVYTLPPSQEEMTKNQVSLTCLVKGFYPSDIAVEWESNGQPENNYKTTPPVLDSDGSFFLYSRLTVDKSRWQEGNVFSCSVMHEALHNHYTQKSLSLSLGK
light: QGQSGQGSRCSVYEVSSGLCDWGGGSSGGSISSGLLSGRSDNHGGGSDIQLTQSPSSLSASVGDRVTITCRASESVDAYGISFMNWFQQKPGKAPKLLIYAASNQGSGVPSRFSGSGSGTDFTLTISSMQPEDFATYYCQQSKDVPWTFGQGTKLEIKRTVAAPSVFIFPPSDEQLKSGTASVVCLLNNFYPREAKVQWKVDNALQSGNSQESVTEQDSKDSTYSLSSTLTLSKADYEKHKVYACEVTHQGLSSPVTKSFNRGEC

Kd [1]: 4.97 nM
B6: PD-1 1.5 PD028 2001 (antibody)
heavy: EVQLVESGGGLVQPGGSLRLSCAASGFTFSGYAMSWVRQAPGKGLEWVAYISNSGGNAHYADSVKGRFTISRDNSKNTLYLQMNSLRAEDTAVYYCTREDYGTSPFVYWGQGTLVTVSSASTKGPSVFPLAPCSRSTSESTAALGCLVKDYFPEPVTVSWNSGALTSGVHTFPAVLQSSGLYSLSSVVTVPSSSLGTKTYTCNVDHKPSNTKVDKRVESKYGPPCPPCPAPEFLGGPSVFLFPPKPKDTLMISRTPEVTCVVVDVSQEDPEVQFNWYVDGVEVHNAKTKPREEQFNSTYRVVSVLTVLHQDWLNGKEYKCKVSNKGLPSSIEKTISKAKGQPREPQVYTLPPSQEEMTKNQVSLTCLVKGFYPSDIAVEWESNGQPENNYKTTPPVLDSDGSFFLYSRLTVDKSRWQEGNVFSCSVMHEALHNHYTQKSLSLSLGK
light: QGQSGQGFQPCLMFASSCFTSKGGGSSGGSISSGLLSGRSDNHGGGSDIQLTQSPSSLSASVGDRVTITCRASESVDAYGISFMNWFQQKPGKAPKLLIYAASNQGSGVPSRFSGSGSGTDFTLTISSMQPEDFATYYCQQSKDVPWTFGQGTKLEIKRTVAAPSVFIFPPSDEQLKSGTASVVCLLNNFYPREAKVQWKVDNALQSGNSQESVTEQDSKDSTYSLSSTLTLSKADYEKHKVYACEVTHQGLSSPVTKSFNRGEC

Kd [2]: 5.45 nM
B7: PD-1 1.5 PD019 2001 (antibody)
heavy: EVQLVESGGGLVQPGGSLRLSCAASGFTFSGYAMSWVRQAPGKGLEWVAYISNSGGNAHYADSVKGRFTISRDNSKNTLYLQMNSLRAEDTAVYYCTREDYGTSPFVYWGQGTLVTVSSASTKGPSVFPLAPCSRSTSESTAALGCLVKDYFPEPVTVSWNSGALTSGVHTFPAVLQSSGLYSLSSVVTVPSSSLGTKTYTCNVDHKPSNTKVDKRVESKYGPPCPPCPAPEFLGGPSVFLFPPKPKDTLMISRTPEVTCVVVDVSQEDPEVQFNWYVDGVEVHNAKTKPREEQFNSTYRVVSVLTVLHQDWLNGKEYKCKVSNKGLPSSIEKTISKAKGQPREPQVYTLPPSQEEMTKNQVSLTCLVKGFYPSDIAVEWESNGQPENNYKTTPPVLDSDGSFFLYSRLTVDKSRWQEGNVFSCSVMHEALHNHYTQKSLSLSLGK
light: QGQSGQGPCDQNPYFYPYVCHAGGGSSGGSISSGLLSGRSDNHGGGSDIQLTQSPSSLSASVGDRVTITCRASESVDAYGISFMNWFQQKPGKAPKLLIYAASNQGSGVPSRFSGSGSGTDFTLTISSMQPEDFATYYCQQSKDVPWTFGQGTKLEIKRTVAAPSVFIFPPSDEQLKSGTASVVCLLNNFYPREAKVQWKVDNALQSGNSQESVTEQDSKDSTYSLSSTLTLSKADYEKHKVYACEVTHQGLSSPVTKSFNRGEC
